Each block holds one binder with its values, some of them ahead of it.
Biological target: T1, recombinant human serpin B1, wild type (C344) (human, UniProt P30740 1-379)
T1 construct: serpin B1, human, recombinant, wild type (C344); non-glycosylated, 42 kDa by the discussion; also called rhsB1; sB1; source: yeast S. cerevisiae, purified
T1 sequence (looked up): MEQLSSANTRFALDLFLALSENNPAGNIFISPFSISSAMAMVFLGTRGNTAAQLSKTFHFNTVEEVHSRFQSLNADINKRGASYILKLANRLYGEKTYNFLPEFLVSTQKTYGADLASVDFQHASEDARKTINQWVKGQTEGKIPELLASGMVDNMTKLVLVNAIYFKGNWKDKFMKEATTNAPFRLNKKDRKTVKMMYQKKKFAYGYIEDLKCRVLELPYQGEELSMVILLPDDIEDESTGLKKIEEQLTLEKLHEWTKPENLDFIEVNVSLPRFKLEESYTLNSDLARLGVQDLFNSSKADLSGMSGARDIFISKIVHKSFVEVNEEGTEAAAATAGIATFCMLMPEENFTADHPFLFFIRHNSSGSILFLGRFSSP
Assay: formation of SDS- and heat-stable serpin-protease complexes, SDS-PAGE; 2 uL of hNE, hPR3 or hCG (23.4 uM each) mixed with each sB1 protein at 1:1 molar ratio in 20 uL PBS, pH 7.4, 15 min; stopped with protease inhibitor mix; reducing sample buffer, heated, SDS-PAGE
Details: both partners purified

binding result: binds
B1: proteinase 3 (enzyme, human, UniProt P24158 28-248, looked up)
chain: IVGGHEAQPHSRPYMASLQMRGNPGSHFCGGTLIHPSFVLTAAHCLRDIPQRLVNVVLGAHNVRTQEPTQQHFSVAQVFLNNYDAENKLNDVLLIQLSSPANLSASVATVQLPQQDQPVPHGTQCLAMGWGRVGAHDPPAQVLQELNVTVVTFFCRPHNICTFVPRRKAGICFGDSGGPLICDGIIQGIDSFVIWGCATRLFPDFFTRVALYVDWIRSTLR
notes: hPR3, neutrophil serine protease; also called hPR3; PR3; source: bought: Athens Research and Technology

binding result: binds
B2: cathepsin G (enzyme, human, UniProt P08311 21-244, looked up)
chain: IIGGRESRPHSRPYMAYLQIQSPAGQSRCGGFLVREDFVLTAAHCWGSNINVTLGAHNIQRRENTQQHITARRAIRHPQYNQRTIQNDIMLLQLSRRVRRNRNVNPVALPRAQEGLRPGTLCTVAGWGRVSMRRGTDTLREVQLRVQRDRQCLRIFGSYDPRRQICVGDRRERKAAFKGDSGGPLLCNNVAHGIVSYGKSSGVPPEVFTRVSSFLPWIRTTMRS
notes: cathepsin G (hCG), neutrophil serine protease; also called hCG; Cat G; source: bought: Athens Research and Technology

From article PMC11327461, “Exogenous serpin B1 restricts immune complex-mediated NET formation via inhibition of a chymotrypsin-like protease and enhances microbial phagocytosis” (The Journal of Biological Chemistry, 2024)
